Key:
[1] = biological target: T1, anti-CD28 Fab (SEQ ID NOs: 202, 203); assay: phage binding ELISA; biotinylated Fab on neutravidin plate;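 further: clonal phage supernatants added to Fab wells pretreated with CD28 antigen or with blocking buffer only, bound phage read out via HRP-linked anti-M13 antibody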
T1 construct: biotinylated and captured on neutravidin coated plates in the phage ELISA
Description: (§1) Clonal phage were harvested as crude supernatants and screened via standard ELISAs. […] Prior to the addition of clonal phage, wells were incubated with blocking buffer and CD28 antigen or blocking buffer alone. Without washing or aspirating, clonal phage supernatants were then added to the wells and incubated for a short time. Wells were then washed followed by detection of bound phage using a horse radish conjugated anti-M13 antibody.

[2] = biological target: T1, anti-CD28 Fab (SEQ ID NOs: 202, 203); assay: phage binding ELISA; Fab wells pre-incubated with CD28 antigen (competitor);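 further: clonal phage supernatants added to wells preincubated with CD28 antigen in blocking buffer versus blocking buffer alone, washed, bound phage read by HRP-conjugated anti-M13 antibody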
Description: as §1

[3] = biological target: Anti-CD28 Fab (SEQ ID NOs: 202, 203); assay: phage binding ELISA on captured Fab;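 further: clonal phage supernatants added briefly to wells pre-incubated with CD28 antigen or with blocking buffer only, then washed, bound phage read by ELISA using HRP-coupled anti-M13 antibody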
Description: as §1

[4] = biological target: Anti-CD28 Fab (SEQ ID NOs: 202, 203); assay: phage binding ELISA on captured Fab; competitor CD28 antigen;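 on Anti-CD28 Fab signal in the presence of CD28: wells pretreated with CD28 antigen in blocking buffer or buffer only, then clonal phage supernatants added briefly without washing, bound phage detected via horseradish-conjugated anti-M13 antibody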
Description: as §1

T1 sequence (VH, as listed by the source, chain 1 of 2): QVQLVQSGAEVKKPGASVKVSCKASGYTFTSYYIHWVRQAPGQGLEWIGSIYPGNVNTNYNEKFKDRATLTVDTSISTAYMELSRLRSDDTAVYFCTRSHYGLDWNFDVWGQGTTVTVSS
T1 sequence (VL, as listed by the source, chain 2 of 2): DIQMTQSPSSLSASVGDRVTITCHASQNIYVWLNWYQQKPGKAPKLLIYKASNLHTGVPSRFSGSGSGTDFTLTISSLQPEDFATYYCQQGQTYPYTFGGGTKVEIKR
Anti-CD28 Fab (SEQ ID NOs: 202, 203), sequence (VH, as listed by the source, chain 1 of 2): as the sequence (VH, as listed by the source, chain 1 of 2) above
Anti-CD28 Fab (SEQ ID NOs: 202, 203), sequence (VL, as listed by the source, chain 2 of 2): as the sequence (VL, as listed by the source, chain 2 of 2) above

YCEGHLDEYMWKCL [Phage-381]
Anti-CD28 Fab (SEQ ID NOs: 202, 203) signal [1]: 1.77 | Anti-CD28 Fab signal in the presence of CD28 [2]: 0.06

YCDGLASEYMSKCL [Phage-382]
Anti-CD28 Fab (SEQ ID NOs: 202, 203) signal [1]: 1.77 | Anti-CD28 Fab signal in the presence of CD28 [2]: 0.05

YCEGHSPQYVQKCL [Phage-384]
Anti-CD28 Fab (SEQ ID NOs: 202, 203) signal [1]: 1.77 | Anti-CD28 Fab signal in the presence of CD28 [2]: 0.06

YCDGHLDEYMEKCL [Phage-386]
Anti-CD28 Fab (SEQ ID NOs: 202, 203) signal [1]: 1.76 | Anti-CD28 Fab signal in the presence of CD28 [2]: 0.08

YCAGHLPEYMLKCL [Phage-387]
Anti-CD28 Fab (SEQ ID NOs: 202, 203) signal [1]: 1.76 | Anti-CD28 Fab signal in the presence of CD28 [2]: 0.09

YCAGHSPLYMLKCL [Phage-442]
Anti-CD28 Fab (SEQ ID NOs: 202, 203) signal [1]: 1.7 | Anti-CD28 Fab signal in the presence of CD28 [2]: 0.1

YCDGHLPVYLEKCL [Phage-444]
Anti-CD28 Fab (SEQ ID NOs: 202, 203) signal [1]: 1.69 | Anti-CD28 Fab signal in the presence of CD28 [2]: 0.06

YCAGHLQEYMQKCL [Phage-445]
Anti-CD28 Fab (SEQ ID NOs: 202, 203) signal [1]: 1.69 | Anti-CD28 Fab signal in the presence of CD28 [2]: 0.07

YCEGHSPWYMNKCL [Phage-449]
Anti-CD28 Fab (SEQ ID NOs: 202, 203) signal [1]: 1.68 | Anti-CD28 Fab signal in the presence of CD28 [2]: 0.06

YCEGHSPEYILKCL [Phage-25]
Anti-CD28 Fab signal [3]: 1.75 | Anti-CD28 Fab signal in the presence of CD28 [4]: 0.06

YCEGHRPEYILKCL [Phage-26]
Anti-CD28 Fab signal [3]: 1.27 | Anti-CD28 Fab signal in the presence of CD28 [4]: 0.06

YCDGHSPEYILKCL [Phage-93]
Anti-CD28 Fab signal [3]: 2.31 | Anti-CD28 Fab signal in the presence of CD28 [4]: 0.09

YCEGHEGIYFWKCL [Phage-27]
Anti-CD28 Fab signal [3]: 2.07 | Anti-CD28 Fab signal in the presence of CD28 [4]: 0.06

YCDGHLPEYMAKCL [Phage-69]
Anti-CD28 Fab signal [3]: 2.37 | Anti-CD28 Fab signal in the presence of CD28 [4]: 0.13

YCEGHLPEYIEKCL [Phage-28]
Anti-CD28 Fab signal [3]: 2.06 | Anti-CD28 Fab signal in the presence of CD28 [4]: 0.08

YCEGHAPEYIAKCL [Phage-29]
Anti-CD28 Fab signal [3]: 2.15 | Anti-CD28 Fab signal in the presence of CD28 [4]: 0.09

YCEGHAPEYIRKCL [Phage-30]
Anti-CD28 Fab signal [3]: 1.63 | Anti-CD28 Fab signal in the presence of CD28 [4]: 0.08

YCEGHAPEYIWKCL [Phage-31]
Anti-CD28 Fab signal [3]: 1.63 | Anti-CD28 Fab signal in the presence of CD28 [4]: 0.07

YCEGHLPEYLGKCL [Phage-33]
Anti-CD28 Fab signal [3]: 1.23 | Anti-CD28 Fab signal in the presence of CD28 [4]: 0.08

YCEGHLPEYREKCL [Phage-34]
Anti-CD28 Fab signal [3]: 1.96 | Anti-CD28 Fab signal in the presence of CD28 [4]: 0.07

YCEGHLPEYLAKCL [Phage-35]
Anti-CD28 Fab signal [3]: 2.34 | Anti-CD28 Fab signal in the presence of CD28 [4]: 0.1

YCEGHLPEYRNKCL [Phage-40]
Anti-CD28 Fab signal [3]: 2.38 | Anti-CD28 Fab signal in the presence of CD28 [4]: 0.17

YCEGHLPEYIQKCL [Phage-42]
Anti-CD28 Fab signal [3]: 1.9 | Anti-CD28 Fab signal in the presence of CD28 [4]: 0.08

YCEGHLPEYIWKCL [Phage-43]
Anti-CD28 Fab signal [3]: 2.32 | Anti-CD28 Fab signal in the presence of CD28 [4]: 0.09

YCEGHAPEYIGKCL [Phage-44]
Anti-CD28 Fab signal [3]: 2.1 | Anti-CD28 Fab signal in the presence of CD28 [4]: 0.07

YCDGHSPIYMWKCL [Phage-45]
Anti-CD28 Fab signal [3]: 2.47 | Anti-CD28 Fab signal in the presence of CD28 [4]: 0.09

YCEGHAPEYMAKCL [Phage-46]
Anti-CD28 Fab signal [3]: 2.47 | Anti-CD28 Fab signal in the presence of CD28 [4]: 0.08

YCDGHLPQYMEKCL [Phage-47]
Anti-CD28 Fab signal [3]: 2.47 | Anti-CD28 Fab signal in the presence of CD28 [4]: 0.11

YCAGHAPEYMEKCL [Phage-48]
Anti-CD28 Fab signal [3]: 2.45 | Anti-CD28 Fab signal in the presence of CD28 [4]: 0.09

YCDGHSPEYMWKCL [Phage-49]
Anti-CD28 Fab signal [3]: 2.44 | Anti-CD28 Fab signal in the presence of CD28 [4]: 0.09

YCDGHLPEYMEKCL [Phage-50]
Anti-CD28 Fab signal [3]: 2.44 | Anti-CD28 Fab signal in the presence of CD28 [4]: 0.1

YCEGHLPQYMWKCL [Phage-51]
Anti-CD28 Fab signal [3]: 2.44 | Anti-CD28 Fab signal in the presence of CD28 [4]: 0.17

YCDGHLPEYMNKCL [Phage-52]
Anti-CD28 Fab signal [3]: 2.43 | Anti-CD28 Fab signal in the presence of CD28 [4]: 0.13

YCAGHLPEYMDKCL [Phage-53]
Anti-CD28 Fab signal [3]: 2.42 | Anti-CD28 Fab signal in the presence of CD28 [4]: 0.12

YCDGHSAEHMAKCL [Phage-54]
Anti-CD28 Fab signal [3]: 2.41 | Anti-CD28 Fab signal in the presence of CD28 [4]: 0.08

YCAGHLPQYMAKCL [Phage-55]
Anti-CD28 Fab signal [3]: 2.41 | Anti-CD28 Fab signal in the presence of CD28 [4]: 0.17

YCEGHLPEYMAKCL [Phage-57]
Anti-CD28 Fab signal [3]: 2.41 | Anti-CD28 Fab signal in the presence of CD28 [4]: 0.14

YCEGHLPEYMFKCL [Phage-58]
Anti-CD28 Fab signal [3]: 2.4 | Anti-CD28 Fab signal in the presence of CD28 [4]: 0.12

YCDGHLPQYMAQCL [Phage-59]
Anti-CD28 Fab signal [3]: 2.4 | Anti-CD28 Fab signal in the presence of CD28 [4]: 0.2
